Measured values taken from ChEMBL document CHEMBL3600307, “Synthesis, kinetic mechanism and docking studies of vanillin derivatives as inhibitors of mushroom tyrosinase” (Bioorg Med Chem, 2015).
Calls of active or inactive are those of the source. The rule behind the calls is not given here.

Experiments:
Tyrosinase [1] = molecular target: T1, Tyrosinase (Agaricus bisporus, UniProt O42713)
T1 sequence (O42713 whole entry): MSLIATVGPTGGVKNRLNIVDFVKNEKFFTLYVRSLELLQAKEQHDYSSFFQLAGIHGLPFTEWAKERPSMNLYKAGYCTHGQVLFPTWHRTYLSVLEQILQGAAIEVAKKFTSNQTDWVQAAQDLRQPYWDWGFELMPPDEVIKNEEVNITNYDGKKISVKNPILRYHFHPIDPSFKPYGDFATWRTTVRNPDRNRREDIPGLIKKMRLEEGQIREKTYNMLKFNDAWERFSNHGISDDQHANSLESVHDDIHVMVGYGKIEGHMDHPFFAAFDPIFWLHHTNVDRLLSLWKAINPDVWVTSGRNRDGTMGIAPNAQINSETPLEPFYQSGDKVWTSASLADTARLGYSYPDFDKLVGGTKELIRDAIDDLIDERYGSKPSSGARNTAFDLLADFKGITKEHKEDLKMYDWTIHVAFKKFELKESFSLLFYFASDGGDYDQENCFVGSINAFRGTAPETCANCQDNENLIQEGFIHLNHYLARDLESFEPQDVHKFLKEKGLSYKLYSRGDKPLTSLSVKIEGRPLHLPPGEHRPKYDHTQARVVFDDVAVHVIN

Tyrosinase [2] = molecular target: T1, Tyrosinase; remark: listed apart in the source
Tyrosinase [3] = molecular target: T1, Tyrosinase; remark: listed apart in the source
L929 = assay: Cytotoxicity against mouse L929 cells assessed as decrease in cell viability after 24 hrs by MTT assay; format: cell-based; details: l929, 24 h
HaCaT = assay: Cytotoxicity against human HaCaT cells assessed as decrease in cell viability after 24 hrs by MTT assay; format: cell-based
[4] = molecular target: T2, Tyrosinase (Agaricus bisporus) (UniProt O42713); details: 8.75 to 140 uM
T2 sequence (whole entry): T1 sequence (O42713 whole entry)

[5] = molecular target: T2, Tyrosinase (Agaricus bisporus); assay: Reversible inhibition of mushroom tyrosinase using L-DOPA as substrate at 10.6 to 342 uM
[6] = compound: COc1cc(C=O)ccc1OC(=O)CN1CCN(C)CC1; assay: Non competitive inhibition of mushroom tyrosinase using L-DOPA as substrate assessed as enzyme Vmax at 10.68 uM preincubated for 10 mins followed by substrate addition measured after 20 mins by Lineweaver-Burk plot analysis (reference value: […] x 10^-4 to 2.66 x 10^-4 deltaA/s); details: Agaricus bisporus
[7] = compound: COc1cc(C=O)ccc1OC(=O)CN1CCN(C)CC1; assay: Non competitive inhibition of mushroom tyrosinase using L-DOPA as substrate assessed as enzyme Vmax at 21.37 uM preincubated for 10 mins followed by substrate addition measured after 20 mins by Lineweaver-Burk plot analysis (reference value: […] x 10^-4 to 2.66 x 10^-4 deltaA/s); details: Agaricus bisporus
[8] = compound: COc1cc(C=O)ccc1OC(=O)CN1CCN(C)CC1; assay: Non competitive inhibition of mushroom tyrosinase using L-DOPA as substrate assessed as enzyme Vmax at 42.75 uM preincubated for 10 mins followed by substrate addition measured after 20 mins by Lineweaver-Burk plot analysis (reference value: […] x 10^-4 to 2.66 x 10^-4 deltaA/s); details: Agaricus bisporus
[9] = compound: COc1cc(C=O)ccc1OC(=O)CN1CCN(C)CC1; assay: Non competitive inhibition of mushroom tyrosinase using L-DOPA as substrate assessed as enzyme Vmax at 85.5 uM preincubated for 10 mins followed by substrate addition measured after 20 mins by Lineweaver-Burk plot analysis (reference value: […] x 10^-4 to 2.66 x 10^-4 deltaA/s); details: Agaricus bisporus
[10] = compound: COc1cc(C=O)ccc1OC(=O)CN1CCN(C)CC1; assay: Non competitive inhibition of mushroom tyrosinase using L-DOPA as substrate assessed as enzyme Vmax at 342 uM preincubated for 10 mins followed by substrate addition measured after 20 mins by Lineweaver-Burk plot analysis (reference value: […] x 10^-4 to 2.66 x 10^-4 deltaA/s); details: Agaricus bisporus
[11] = compound: COc1cc(C=O)ccc1OC(=O)CN1CCN(C)CC1; assay: Non competitive inhibition of mushroom tyrosinase using L-DOPA as substrate assessed as enzyme Km at 10.68 uM preincubated for 10 mins followed by substrate addition measured after 20 mins by Lineweaver-Burk plot analysis (reference value: […] to […] mM); details: Agaricus bisporus
[12] = compound: COc1cc(C=O)ccc1OC(=O)CN1CCN(C)CC1; assay: Non competitive inhibition of mushroom tyrosinase using L-DOPA as substrate assessed as enzyme Km at 21.37 uM preincubated for 10 mins followed by substrate addition measured after 20 mins by Lineweaver-Burk plot analysis (reference value: […] to […] mM); details: Agaricus bisporus
[13] = compound: COc1cc(C=O)ccc1OC(=O)CN1CCN(C)CC1; assay: Non competitive inhibition of mushroom tyrosinase using L-DOPA as substrate assessed as enzyme Km at 42.75 uM preincubated for 10 mins followed by substrate addition measured after 20 mins by Lineweaver-Burk plot analysis (reference value: […] to […] mM); details: Agaricus bisporus
[14] = compound: COc1cc(C=O)ccc1OC(=O)CN1CCN(C)CC1; assay: Non competitive inhibition of mushroom tyrosinase using L-DOPA as substrate assessed as enzyme Km at 85.5 uM preincubated for 10 mins followed by substrate addition measured after 20 mins by Lineweaver-Burk plot analysis (reference value: […] to […] mM); details: Agaricus bisporus
[15] = compound: COc1cc(C=O)ccc1OC(=O)CN1CCN(C)CC1; assay: Non competitive inhibition of mushroom tyrosinase using L-DOPA as substrate assessed as enzyme Km at 342 uM preincubated for 10 mins followed by substrate addition measured after 20 mins by Lineweaver-Burk plot analysis (reference value: […] to […] mM); details: Agaricus bisporus
[16] = substrate: COc1cc(C=O)ccc1OC(=O)COC(=O)/C=C/c1ccc(O)cc1; details: Agaricus bisporus; 17.5 uM
[17] = substrate: COc1cc(C=O)ccc1OC(=O)COC(=O)/C=C/c1ccc(Cl)cc1; details: Agaricus bisporus; 8.3 uM
[18] = substrate: COc1cc(C=O)ccc1OC(=O)COC(=O)/C=C/c1ccc(Cl)cc1; details: Agaricus bisporus; 16.6 uM
[19] = substrate: COc1cc(C=O)ccc1OC(=O)COC(=O)/C=C/c1ccc(Cl)cc1; details: Agaricus bisporus; 33.3 uM
[20] = substrate: COc1cc(C=O)ccc1OC(=O)COC(=O)c1ccc(O)cc1O; details: Agaricus bisporus; 72.2 uM
[21] = substrate: COc1cc(C=O)ccc1OC(=O)COC(=O)c1ccc(O)cc1O; details: Agaricus bisporus; 144.5 uM
[22] = substrate: COc1cc(C=O)ccc1OC(=O)COC(=O)c1ccc(O)cc1O; details: Agaricus bisporus; 289 uM
[23] = substrate: COc1cc(C=O)ccc1OC(=O)COC(=O)/C=C/c1ccc(O)cc1; details: Agaricus bisporus; 8.75 uM
[24] = substrate: COc1cc(C=O)ccc1OC(=O)COC(=O)/C=C/c1ccc(O)cc1; details: Agaricus bisporus; 17.5 uM; remark: listed apart in the source
[25] = substrate: COc1cc(C=O)ccc1OC(=O)COC(=O)/C=C/c1ccc(Cl)cc1; details: Agaricus bisporus; 8.3 uM; remark: listed apart in the source
[26] = substrate: COc1cc(C=O)ccc1OC(=O)COC(=O)/C=C/c1ccc(Cl)cc1; details: Agaricus bisporus; 16.6 uM; remark: listed apart in the source
[27] = substrate: COc1cc(C=O)ccc1OC(=O)COC(=O)c1ccc(O)cc1O; details: Agaricus bisporus; 72.2 uM; remark: listed apart in the source
[28] = substrate: COc1cc(C=O)ccc1OC(=O)COC(=O)c1ccc(O)cc1O; details: Agaricus bisporus; 144.5 uM; remark: listed apart in the source
[29] = substrate: COc1cc(C=O)ccc1OC(=O)COC(=O)c1ccc(O)cc1O; details: Agaricus bisporus; 289 uM; remark: listed apart in the source
[30] = substrate: COc1cc(C=O)ccc1OC(=O)COC(=O)/C=C/c1ccc(O)cc1; details: Agaricus bisporus; 8.75 uM; remark: listed apart in the source

COc1cc(C=O)ccc1OC(=O)COC(=O)c1cc(O)cc(O)c1
IC50 (Tyrosinase [1]): 59.8 µM

COc1cc(C=O)ccc1OC(=O)COC(=O)c1ccc(O)c(O)c1
IC50 (Tyrosinase [1]): 157 µM

COc1cc(C=O)ccc1OC(=O)CN1CCN(c2ccccc2)CC1
IC50 (Tyrosinase [1]): 101 µM

COc1cc(C=O)ccc1OC(=O)COC(=O)/C=C/c1ccc(Cl)cc1
Ki (Tyrosinase [2]): 41 µM | Ki (Tyrosinase [3]): 100 µM | IC50 (Tyrosinase [1]): 30.9 µM

COc1cc(C=O)ccc1OC(=O)COC(=O)c1ccc(O)cc1
IC50 (Tyrosinase [1]): 201 µM

COc1cc(C=O)ccc1OC(=O)COC(=O)/C=C/c1ccc(O)cc1
Activity (L929): Dose-dependent effect | Activity (HaCaT): Dose-dependent effect | Ki (Tyrosinase [2]): 13 µM | Ki (Tyrosinase [3]): 53 µM | IC50 (Tyrosinase [1]): 16.1 µM | inhibition [4]: Active

COc1cc(C=O)ccc1OC(=O)CCl
IC50 (Tyrosinase [1]): 78.9 µM

COc1cc(C=O)ccc1OC(=O)CN1CCN(C)CC1
inhibition [5]: Active | Ki (Tyrosinase [2]): 60 µM | IC50 (Tyrosinase [1]): 21.6 µM

COc1cc(C=O)ccc1OC(=O)COC(=O)c1ccc(O)cc1O
Ki (Tyrosinase [2]): 65 µM | Ki (Tyrosinase [3]): 205 µM | IC50 (Tyrosinase [1]): 42.6 µM

B1: Tyrosinase (Agaricus bisporus), O42713 (protein)
chain: T1 sequence (O42713 whole entry)
Vmax (10'-4deltaA/s) [6]: 1.66 | Vmax (10'-4deltaA/s) [7]: 1.42 | Vmax (10'-4deltaA/s) [8]: 1.17 | Vmax (10'-5deltaA/s) [9]: 7.14 | Vmax (10'-5deltaA/s) [10]: 2.85 | Km [11]: 400 µM | Km [12]: 400 µM | Km [13]: 400 µM | Km [14]: 400 µM | Km [15]: 400 µM | Vmax (10'-4deltaA/s) [16]: 2 | Vmax (10'-4deltaA/s) [17]: 2.22 | Vmax (10'-4deltaA/s) [18]: 1.96 | Vmax (10'-4deltaA/s) [19]: 1.85 | Km [20]: 830 µM | Km [21]: 1000 µM | Km [22]: 1250 µM | Km [23]: 1330 µM | Km [24]: 1530 µM | Km [25]: 900 µM | Km [26]: 1000 µM | Vmax (10'-4deltaA/s) [27]: 2 | Vmax (10'-4deltaA/s) [28]: 1.53 | Vmax (10'-4deltaA/s) [29]: 1.05 | Vmax (10'-4deltaA/s) [30]: 2.22
